Source: article PMC6585716 (Biopolymers, 2017)
Non-standard residues stand in square brackets, D forms with d. No end group written: not given here. code X = not defined here

Key:
Settings in all cases: both partners purified
[1] = biological target: T1, Recombinant human vascular endothelial growth factor (VEGF165) (human, UniProt P15692-4 1-191, X (detection label) on the N-terminus); disulfide bridge between the two cysteines cyclises …; C-terminal Tz4 (1,4-triazole linker) joins it to lfrew | all D-residues (printed in lowercase: l); assay: inhibition assay; inhibition of VEGF binding to VEGFR2 in the presence of PCCs, Figure 2B; experimental details in the Supporting Information
[2] = biological target: T1, Recombinant human vascular endothelial …; assay: not stated; titration giving EC50 ('relative affinities') of PCCs on VEGF, Figure 2A; experimental details in the Supporting Information
[3] = biological target: Recombinant human vascular endothelial growth factor (VEGF165) (human, UniProt P15692-4 1-191, X (detection label) on the N-terminus; disulfide bridge between the two cysteines cyclises …; C-terminal Tz4 (1,4-triazole formed of Az4 and D-propargylglycine) joins it to lfrew | all D-res); assay: as above
Chain of Recombinant human vascular endothelial growth factor (VEGF165) (human, UniProt P15692-4 1-191, X (detection label) on the N-terminus; disulfide bridge between the two cysteines cyclises …; C-terminal Tz4 (1,4-triazole formed of Az4 and D-propargylglycine) joins it to lfrew | all D-res) (P15692 other isoform, or with tags, fused parts or gaps): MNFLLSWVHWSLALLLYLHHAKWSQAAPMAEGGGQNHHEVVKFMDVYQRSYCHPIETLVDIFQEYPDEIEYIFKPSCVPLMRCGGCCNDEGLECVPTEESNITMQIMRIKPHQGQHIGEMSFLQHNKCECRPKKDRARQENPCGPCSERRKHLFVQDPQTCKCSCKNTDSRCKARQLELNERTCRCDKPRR

T1 sequence (P15692 other isoform, or with tags, fused parts or gaps): as above

| Binder | IC50 [1] [nM] | EC50 [2] [nM] | fold improvement in EC50 relative to AnchorV [3] [fold] |
| --- | --- | --- | --- |
| Tri-LV (X-VEPNCDIHVMWEWECFERL-Tz4-lfrew-Tz4-eeird) (designed binder, cysteine pairing not given here; reading uncertain; also: chains joined via Tz4 linkers, N-terminal X not defined, triazole to a chain's N/C-terminus, triazole to a chain's N/C-terminus, printed as X-VEPNCDIHVMWEWECFERL-Tz4-lfrew-Tz4-eeird, also called consensus triligand; 64Cu-DOTA-Tri-LV (N-terminal DOTA conjugate, in vivo)) peptide 1: {code X}-VEPNCDIHVMWEWECFERL peptide 2: [dL][dF][dR][dE][dW] peptide 3: [dE][dE][dI][dR][dD] | 2.6 ± 0.5 | – | – |
| Tetra-LV (X-VEPNCDIHVMWEWECFERL-Tz4-lfrew-Tz4-eeird-Tz4-qfkyr) (designed binder, cysteine pairing not given here; reading uncertain; also: chains joined via Tz4 linkers, N-terminal X not defined, triazole to a chain's N/C-terminus, triazole to a chain's N/C-terminus, triazole to a chain's N/C-terminus, printed as X-VEPNCDIHVMWEWECFERL-Tz4-lfrew-Tz4-eeird-Tz4-qfkyr, also called tetraligand) peptide 1: {code X}-VEPNCDIHVMWEWECFERL peptide 2: [dL][dF][dR][dE][dW] peptide 3: [dE][dE][dI][dR][dD] peptide 4: [dQ][dF][dK][dY][dR] | 0.74 ± 0.05 | 6.1 ± 0.2 | – |
| Bi-LV (X-VEPNCDIHVMWEWECFERL-Tz4-lfrew) (designed binder, not fully specified; printed as X-VEPNCDIHVMWEWECFERL-Tz4-lfrew; cysteine pairing not given here; reading uncertain; also: chain 1 C-terminus joined to chain 2 N-terminus via Tz4, also called anti-VEGF biligand PCC) peptide 1: {code X}-VEPNCDIHVMWEWECFERL peptide 2: [dL][dF][dR][dE][dW] | – | – | 4.5 |
